Experimental data taken from IntAct's records for PubMed 18334649.

B1: Receptor tyrosine-protein kinase erbB-4 (Homo sapiens), Q15303 (parent)
chain: MKPATGLWVWVSLLVAAGTVQPSDSQSVCAGTENKLSSLSDLEQQYRALRKYYENCEVVMGNLEITSIEHNRDLSFLRSVREVTGYVLVALNQFRYLPLENLRIIRGTKLYEDRYALAIFLNYRKDGNFGLQELGLKNLTEILNGGVYVDQNKFLCYADTIHWQDIVRNPWPSNLTLVSTNGSSGCGRCHKSCTGRCWGPTENHCQTLTRTVCAEQCDGRCYGPYVSDCCHRECAGGCSGPKDTDCFACMNFNDSGACVTQCPQTFVYNPTTFQLEHNFNAKYTYGAFCVKKCPHNFVVDSSSCVRACPSSKMEVEENGIKMCKPCTDICPKACDGIGTGSLMSAQTVDSSNIDKFINCTKINGNLIFLVTGIHGDPYNAIEAIDPEKLNVFRTVREITGFLNIQSWPPNMTDFSVFSNLVTIGGRVLYSGLSLLILKQQGITSLQFQSLKEISAGNIYITDNSNLCYYHTINWTTLFSTINQRIVIRDNRKAENCTAEGMVCNHLCSSDGCWGPGPDQCLSCRRFSRGRICIESCNLYDGEFREFENGSICVECDPQCEKMEDGLLTCHGPGPDNCTKCSHFKDGPNCVEKCPDGLQGANSFIFKYADPDRECHPCHPNCTQGCNGPTSHDCIYYPWTGHSTLPQHARTPLIAAGVIGGLFILVIVGLTFAVYVRRKSIKKKRALRRFLETELVEPLTPSGTAPNQAQLRILKETELKRVKVLGSGAFGTVYKGIWVPEGETVKIPVAIKILNETTGPKANVEFMDEALIMASMDHPHLVRLLGVCLSPTIQLVTQLMPHGCLLEYVHEHKDNIGSQLLLNWCVQIAKGMMYLEERRLVHRDLAARNVLVKSPNHVKITDFGLARLLEGDEKEYNADGGKMPIKWMALECIHYRKFTHQSDVWSYGVTIWELMTFGGKPYDGIPTREIPDLLEKGERLPQPPICTIDVYMVMVKCWMIDADSRPKFKELAAEFSRMARDPQRYLVIQGDDRMKLPSPNDSKFFQNLLDEEDLEDMMDAEEYLVPQAFNIPPPIYTSRARIDSNRSEIGHSPPPAYTPMSGNQFVYRDGGFAAEQGVSVPYRAPTSTIPEAPVAQGATAEIFDDSCCNGTLRKPVAPHVQEDSSTQRYSADPTVFAPERSPRGELDEEGYMTPMRDKPKQEYLNPVEENPFVSRRKNGDLQALDNPEYHNASNGPPKAEDEYVNEPLYLNTFANTLGKAEYLKNNILSMPEKAKKAFDNPDYWNHSLPPRSTLQHPDYLQEYSTKYFYKQNGRIRPIVAENPEYLSEFSLKPGTVLPPPPYRHRNTVV

Variants of: B1
Conditions: with ITCH

| Variant | effect of a mutation on the interaction |
| --- | --- |
| Y1056F | disrupting interaction |
| P1054A | disrupting interaction |
